From PMC12365351

Legend:
[1] = target: rNcSAG1* (recombinant Neospora caninum SAG1, residues 31-317, Strep-tag removed by enterokinase) (Neospora caninum); assay: SEC; preparative SEC of the proteins after removal of the Strep-tag with enterokinase, 0.1 M Tris-Cl pH 8.0, 0.15 M NaCl, 1 mM EDTA; unique peak slightly shifted towards smaller size; self-association (dimer)
[2] = target: rNcSAG1-ST (recombinant Neospora caninum SAG1, residues 31-317, with C-terminal Twin-Strep-tag) (Neospora caninum); assay: SEC; analytical SEC of the re-injected main peak, Superdex 200 Increase 10/300 GL, 0.1 M Tris-Cl pH 8.0, 0.15 M NaCl, 1 mM EDTA, 0.5 ml/min; MW estimated from calibration with LMW and HMW kits; self-association (dimer)
[3] = target: rNcSRS2* (recombinant Neospora caninum SRS2, residues 54-401, Strep-tag removed by enterokinase) (Neospora caninum); assay: SEC; preparative SEC of the proteins after removal of the Strep-tag with enterokinase, 0.1 M Tris-Cl pH 8.0, 0.15 M NaCl, 1 mM EDTA; unique peak slightly shifted towards smaller size; self-association (dimer)
[4] = target: rNcSRS2-ST (recombinant Neospora caninum SRS2, residues 54-401, with C-terminal Twin-Strep-tag) (Neospora caninum); assay: SEC; analytical SEC of the re-injected main peak, Superdex 200 Increase 10/300 GL, 0.1 M Tris-Cl pH 8.0, 0.15 M NaCl, 1 mM EDTA, 0.5 ml/min; MW estimated from calibration with LMW and HMW kits; self-association (dimer)

Substance: rNcSAG1* (recombinant Neospora caninum SAG1, residues 31-317, Strep-tag removed by enterokinase) (domain or fragment)
- stoichiometry N [1]: 2

Substance: rNcSAG1-ST (recombinant Neospora caninum SAG1, residues 31-317, with C-terminal Twin-Strep-tag) (domain or fragment)
- stoichiometry N [2]: 2

Substance: rNcSRS2* (recombinant Neospora caninum SRS2, residues 54-401, Strep-tag removed by enterokinase) (domain or fragment)
- stoichiometry N [3]: 2

Substance: rNcSRS2-ST (recombinant Neospora caninum SRS2, residues 54-401, with C-terminal Twin-Strep-tag) (domain or fragment)
- stoichiometry N [4]: 2
